Data reported in paper PMC2955809 (Structure (London, England : 1993), 2010).

Molecular target: the molecule itself
Experiment: SEC

B1: R.Eco29kI restriction endonuclease, E142Q (enzyme, E. coli strain 29K (plasmid pECO29), UniProt Q46944 1-214, looked up)
chain: MHNKKFDRSEHVYRNDSFLELIKDAVRFFSGTPVHSLPPPERFQGAGVYALYYTGHYSLYDEYSRINRLAYNLPIYVGKAVPAGWRQSRISDHETRAGSELSNRIREHGRNIAKTSNLDLCDFSCRFVIFEATGSDMISTVQAALIKIYKPLWNTVVDGFGNHTPGAGRFAQAKSDWDVIHPGREWAEKCTGVHSEPYFIEERIKQYFSKSNFT
With B1 the “stoichiometry N” value was 2.
